Assay results: PMC6130075, “Engineering of 3-ketosteroid-∆^1-dehydrogenase based site-directed saturation mutagenesis for efficient biotransformation of steroidal substrates” (Microbial Cell Factories, 2018)
Changes are numbered by the printed parent chain. Numbers in names are those of the source.

B1: KsdD3 (3-ketosteroid-∆^1-dehydrogenase) (Pimelobacter simplex; W299A) (protein)
chain: MDWAEEYDVLVAGSGAGGMAGTYTAAREGLSVCLVEAGDKFGGTTAYSGGGGAWFPANPVLLRAGTDDTIEDALEYYRAVVGDRTPADLQETYVRGGAGLVAYLEEDDHFSFESYPWPDYFGDAPKARRDGQRHIIPTPLPVPSAPELREVVRGPLDNDRLGTPQPDDLFIGGRALVARFLTALATYPHATLVRETALAELVVEDGVVVGAIVETDGVRRAIRARRGVLLAAGGFEANDELRQKYGVPGVARDTMGPPTNVGAAHQAAIAVGADTDLMGEAWWSPGLTHPDGRSAFALAFTGGIFVDGAGRRFVNESAPYDRLGRAVIDHLTEGGVTPRYWMVYDHKEGSIPPVRATNVSMVDEEQYVAAGLWHTADTLPELAALIGVPADALVATVARFNELVADGYDADFGRGGEAYDRFFSGGEPPLVSIDEGPFHAAAFGISDLGTKGGLRTDTSARVLTADGTPIGGLYAAGNTMAAPSGTTYPGGGNPIGTSMLFSHLAVRHMGTEDAR
notes: full-length, N-terminal His6 tag (pET28a NdeI/EcoRI), E. coli BL21(DE3), Ni-NTA purified
B2: KsdD3 (3-ketosteroid-∆^1-dehydrogenase) (Pimelobacter simplex) (protein)
chain: B1 chain with A299W
notes: as for B1
B3: KsdD3 (3-ketosteroid-∆^1-dehydrogenase) (Pimelobacter simplex; W299G) (protein)
chain: B1 chain with A299G

Key:
[1] = biological target: T1, KsdD3 (3-ketosteroid-∆^1-dehydrogenase) (Pimelobacter simplex, UniProt P77815, W299A); assay: PMS/DCPIP reduction at […] nm, Michaelis-Menten fit; assay type: biochemical; conditions: 50 mM Tris-HCl pH 7.5, 30 °C, 1.5 mM PMS, 40 µM DCPIP, 2% methanol
T1 construct: gene KR76_27115; full-length, N-terminal His6 tag (pET28a NdeI/EcoRI), E. coli BL21(DE3), Ni-NTA purified

[2] = biological target: T2, KsdD3 (3-ketosteroid-∆^1-dehydrogenase) (Pimelobacter simplex, UniProt P77815); assay: PMS/DCPIP reduction at […] nm, Michaelis-Menten fit; assay type: biochemical; conditions: 50 mM Tris-HCl pH 7.5, 30 °C, 1.5 mM PMS, 40 µM DCPIP, 2% methanol
T2 construct: gene KR76_27115; full-length, N-terminal His6 tag (pET28a NdeI/EcoRI), E. coli BL21(DE3), Ni-NTA purified
T2 sequence (P77815 entry or part of it): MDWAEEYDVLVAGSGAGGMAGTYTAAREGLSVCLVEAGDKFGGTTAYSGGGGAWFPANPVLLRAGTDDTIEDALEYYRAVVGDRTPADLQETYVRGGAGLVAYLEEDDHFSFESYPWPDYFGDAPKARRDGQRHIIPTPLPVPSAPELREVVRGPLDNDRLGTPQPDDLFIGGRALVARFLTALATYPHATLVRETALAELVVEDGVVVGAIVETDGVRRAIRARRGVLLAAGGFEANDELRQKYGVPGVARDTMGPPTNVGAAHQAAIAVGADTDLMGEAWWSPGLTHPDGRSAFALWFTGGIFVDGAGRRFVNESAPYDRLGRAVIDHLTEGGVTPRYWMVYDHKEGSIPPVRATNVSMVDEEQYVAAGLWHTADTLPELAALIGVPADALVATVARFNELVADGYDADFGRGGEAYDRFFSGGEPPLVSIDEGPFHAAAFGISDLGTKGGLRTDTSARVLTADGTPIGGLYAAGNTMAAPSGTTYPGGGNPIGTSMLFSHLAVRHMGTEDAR

[3] = substrate: CC(=O)[C@H]1CC[C@H]2[C@@H]3CCC4=CC(=O)CC[C@]4(C)[C@H]3CC[C@]12C; assay: purified protein; assay type: biochemical, Pimelobacter simplex; conditions: 50 mM Tris-HCl pH 7.5, 30 °C, 1.5 mM PMS, 40 µM DCPIP, 2% methanol
[4] = substrate: C[C@]12CCC(=O)C=C1CC[C@@H]1[C@@H]2CC[C@]2(C)C(=O)CC[C@@H]12; assay: purified protein; assay type: biochemical, Pimelobacter simplex; conditions: pH 7.5; 30.0 °C
[5] = substrate: C[C@]12CCC(=O)C=C1CC[C@@H]1[C@@H]2CC[C@@]2(C)[C@H]1CC[C@]2(C)O; assay: purified protein; assay type: biochemical, Pimelobacter simplex; conditions: pH 7.5; 30.0 °C
[6] = substrate: C[C@]12CC[C@H]3[C@@H](CCC4=CC(=O)CC[C@@]43C)[C@@H]1CC[C@@H]2O; assay: purified protein; assay type: biochemical, Pimelobacter simplex; conditions: pH 7.5; 30.0 °C
[7] = substrate: CC(=O)[C@@]12O[C@@H]1C[C@H]1[C@@H]3CCC4=CC(=O)CC[C@]4(C)[C@H]3[C@H](O)C[C@@]12C; assay: purified protein; assay type: biochemical, Pimelobacter simplex; conditions: 50 mM Tris-HCl pH 7.5, 30 °C, 1.5 mM PMS, 40 µM DCPIP, 2% methanol
[8] = substrate: CC(=O)[C@@]1(O)CC[C@H]2[C@@H]3CCC4=CC(=O)CC[C@]4(C)[C@H]3C(=O)C[C@@]21C; assay: purified protein; assay type: biochemical, Pimelobacter simplex; conditions: 50 mM Tris-HCl pH 7.5, 30 °C, 1.5 mM PMS, 40 µM DCPIP, 2% methanol
[9] = substrate: CC(=O)OCC(=O)[C@@]1(O)CC[C@H]2[C@@H]3CCC4=CC(=O)CC[C@]4(C)[C@H]3C(=O)C[C@@]21C; assay: purified protein; assay type: biochemical, Pimelobacter simplex; conditions: 50 mM Tris-HCl pH 7.5, 30 °C, 1.5 mM PMS, 40 µM DCPIP, 2% methanol
[10] = substrate: C[C@]12CCC(=O)C=C1CC[C@@H]1[C@@H]2C(=O)C[C@@]2(C)[C@H]1CC[C@]2(O)C(=O)CO; assay: purified protein; conditions: 50 mM Tris-HCl pH 7.5, 30 °C, 1.5 mM PMS, 40 µM DCPIP, 2% methanol
[11] = substrate: C[C@]12CCC(=O)C=C1CC[C@@H]1[C@@H]2CC[C@]2(C)C(=O)CC[C@@H]12; assay: purified protein; conditions: 50 mM Tris-HCl pH 7.5, 30 °C, 1.5 mM PMS, 40 µM DCPIP, 2% methanol

| Molecule | Km [3] [µM] | kcat [3] [s⁻¹] | kcat/Km [3] [M⁻¹ s⁻¹] | Km [4] [µM] | kcat/Km [4] [M⁻¹ s⁻¹] | Km [5] [µM] | kcat/Km [5] [M⁻¹ s⁻¹] | Km [6] [µM] | kcat/Km [6] [M⁻¹ s⁻¹] | Km [7] [µM] | kcat [7] [s⁻¹] | kcat/Km [7] [M⁻¹ s⁻¹] | Km [8] [µM] | kcat [8] [s⁻¹] | kcat/Km [8] [M⁻¹ s⁻¹] | Km [9] [µM] | kcat [9] [s⁻¹] | kcat/Km [9] [M⁻¹ s⁻¹] | Km [10] [µM] | kcat [10] [s⁻¹] | also measured |
| --- | --- | --- | --- | --- | --- | --- | --- | --- | --- | --- | --- | --- | --- | --- | --- | --- | --- | --- | --- | --- | --- |
| C[C@]12CCC(=O)C=C1CC[C@H]1[C@@H]3CCC(=O)[C@@]3(C)CC[C@@]12O [9α-OH-AD, 9α-hydroxy-4-androstene-3,17-dione] | – | – | – | – | – | – | – | – | – | – | – | – | – | – | – | – | – | – | – | – | Km [1]: 68.5 ± 7 µM; Km [2]: 145 ± 4.4 µM |
| B1 | 40.37 ± 3.7 | 87.1 ± 4.2 | 2.16e+06 | 34.89 ± 2.5 | 3.28e+06 | 44.63 ± 2.8 | 1.66e+06 | 33.25 ± 4.2 | 3.7e+06 | 149.15 ± 4.6 | 33.6 ± 2.1 | 230000 | 46.85 ± 0.9 | 62.1 ± 6.1 | 1.32e+06 | 75.93 ± 3.8 | 47.3 ± 1.5 | 620000 | 42.85 ± 3.3 | 78 | kcat/Km [10]: 1.82e+06 M⁻¹ s⁻¹ |
| B2 | 62.31 ± 4.8 | 53.5 ± 4.1 | 860000 | 47.43 ± 1.9 | 1.29e+06 | 55.35 ± 3.1 | 1.03e+06 | 42.05 ± 4.3 | 1.89e+06 | 228.26 ± 7.1 | 19.2 ± 4.5 | 80000 | 57.12 ± 2.8 | 55.2 ± 3.7 | 970000 | 95.08 ± 4.7 | 45.3 ± 3.5 | 480000 | 50.04 ± 2.7 | 59.7 | kcat/Km [10]: 1.19e+06 M⁻¹ s⁻¹ |
| B3 | – | – | – | – | – | – | – | – | – | – | – | – | – | – | – | – | – | – | – | – | Km [11]: 37.01 ± 1.8 µM; kcat [11]: 101.2 ± 0.9 s⁻¹; kcat/Km [11]: 2.74e+06 M⁻¹ s⁻¹ |
